Laboratory results: paper PMC10090083, “Structural basis of impaired disaggregase function in the oxidation-sensitive SKD3 mutant causing 3-methylglutaconic aciduria” (Nature Communications, 2023)

Target: the molecule itself
Assay: not stated; oligomeric state of the isolated Ank domains in solution (Supplementary Fig. 1a, b); method not given

B1: Ank domain of human SKD3 isoform-1 (ANK_(iso1), residues 132-351) (domain or fragment, UniProt Q9H078 132-351, looked up)
chain: SNKDAALLEAARANNMQEVSRLLSEGADVNAKHRLGWTALMVAAINRNNSVVQVLLAAGADPNLGDDFSSVYKTAKEQGIHSLEDGGQDGASRHITNQWTSALEFRRWLGLPAGVLITREDDFNNRLNNRASFKGCTALHYAVLADDYRTVKELLDGGANPLQRNEMGHTPLDYAREGEVMKLLRTSEAKYQEKQRKREAEERRRFPLEQRLKEHIIGQE
notes: human SKD3 (CLPB) isoform-1, Ank domain construct, residues 132-351; TEV-cleavable tag; also called isolated Ank domain of SKD3; source: E. coli BL21-CodonPlus (DE3)-RIL, purified (IMAC, anion exchange, SEC); not shown: His6-SUMO, N-terminal, cleaved
stoichiometry N: 2
